Reference: the supplement of paper PMC9112550, “Optimization of the antimicrobial peptide Bac7 by deep mutational scanning” (BMC Biology, 2022)

What follows are sequences tested on Escherichia coli TOP10 (assay: shrunken log2 fold change of peptide-encoding DNA abundance (4.5 h post-induction vs induction); higher = less antimicrobial activity (less host growth inhibition)). Conditions: time post-induction: 4.5 h; library: site-saturation at positions 5, 18, 19, 20.
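Note: peptides expressed intracellularly from a pBAD plasmid library in pooled LB shake-flask culture, induced with 0.3% L-arabinose, DNA abundance read by NGS, three biological replicates, DESeq2 with apeglm shrinkage.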

Sequence	shrunken log2 fold change
RRIRTRPPRLPRPRPRPLCCPRP	1
RRIRARPPRLPRPRPRPAHAPRP	1.07
RRIRVRPPRLPRPRPRPVCLPRP	0.619
RRIRHRPPRLPRPRPRPKKRPRP	-0.163
RRIRTRPPRLPRPRPRPPQQPRP	0.211
RRIRSRPPRLPRPRPRPKHAPRP	0.143
RRIRCRPPRLPRPRPRPHYHPRP	-0.755
RRIRVRPPRLPRPRPRPMFQPRP	-0.267
RRIRNRPPRLPRPRPRPVPSPRP	0.155
RRIRWRPPRLPRPRPRPPAYPRP	-0.0328
RRIRWRPPRLPRPRPRPYMGPRP	-0.106
RRIRPRPPRLPRPRPRPVYAPRP	-0.261
RRIRPRPPRLPRPRPRPTCGPRP	-0.0302
RRIRYRPPRLPRPRPRPQYWPRP	-0.696
RRIRLRPPRLPRPRPRPQCEPRP	-0.153
RRIRERPPRLPRPRPRPTNLPRP	-0.0315
RRIRSRPPRLPRPRPRPDAYPRP	0.101
RRIRGRPPRLPRPRPRPLRFPRP	0.917
RRIRTRPPRLPRPRPRPFANPRP	-0.116
RRIRSRPPRLPRPRPRPFHAPRP	0.042
RRIRGRPPRLPRPRPRPEMCPRP	1.4
RRIRIRPPRLPRPRPRPNPAPRP	0.0171
RRIRARPPRLPRPRPRPNEDPRP	0.334
RRIRVRPPRLPRPRPRPGFMPRP	-0.152
RRIRERPPRLPRPRPRPVRKPRP	-0.0457

Sequence	shrunken log2 fold change
RRIRGRPPRLPRPRPRPWVPPRP	0.0241
RRIRTRPPRLPRPRPRPQAEPRP	-0.00758
RRIRPRPPRLPRPRPRPRHPPRP	0.357
RRIRSRPPRLPRPRPRPLWIPRP	-0.497
RRIRQRPPRLPRPRPRPYVPPRP	-0.157
RRIRHRPPRLPRPRPRPAVWPRP	0.261
RRIRTRPPRLPRPRPRPKTYPRP	-0.566
RRIRLRPPRLPRPRPRPVGEPRP	0.12
RRIRLRPPRLPRPRPRPNSRPRP	-0.0164
RRIRGRPPRLPRPRPRPCRIPRP	-0.0785
RRIRIRPPRLPRPRPRPKSNPRP	-0.673
RRIRIRPPRLPRPRPRPGYYPRP	-0.708
RRIRSRPPRLPRPRPRPNPWPRP	-0.0604
RRIRCRPPRLPRPRPRPHFWPRP	0.125
RRIRQRPPRLPRPRPRPIWNPRP	-0.183
RRIRDRPPRLPRPRPRPIWSPRP	-0.0288
RRIRFRPPRLPRPRPRPFWYPRP	-0.102
RRIRWRPPRLPRPRPRPWNPPRP	-0.219
RRIRTRPPRLPRPRPRPEGQPRP	0.0344
RRIRYRPPRLPRPRPRPLDGPRP	-0.467
RRIRVRPPRLPRPRPRPCMEPRP	-1
RRIRCRPPRLPRPRPRPNWDPRP	-0.185
RRIRFRPPRLPRPRPRPKEWPRP	-0.00364
RRIRCRPPRLPRPRPRPAESPRP	0.0971
RRIRLRPPRLPRPRPRPIERPRP	-0.155

Sequence	shrunken log2 fold change
RRIRIRPPRLPRPRPRPDGDPRP	-0.176
RRIRKRPPRLPRPRPRPQEAPRP	-0.000925
RRIRSRPPRLPRPRPRPMGGPRP	0.334
RRIRSRPPRLPRPRPRPVETPRP	0.00492
RRIRCRPPRLPRPRPRPCEQPRP	-0.222
RRIRYRPPRLPRPRPRPWHMPRP	-0.311
RRIRMRPPRLPRPRPRPTYQPRP	-0.063
RRIRMRPPRLPRPRPRPHNTPRP	-0.168
RRIRVRPPRLPRPRPRPPQQPRP	0.575
RRIRARPPRLPRPRPRPRHPPRP	0.383
RRIRRRPPRLPRPRPRPQRIPRP	-0.00231
RRIRMRPPRLPRPRPRPCILPRP	0.053
RRIRSRPPRLPRPRPRPMGDPRP	0.00987
RRIRRRPPRLPRPRPRPTCMPRP	0.315
RRIRFRPPRLPRPRPRPKEMPRP	-0.0141
RRIRGRPPRLPRPRPRPRHIPRP	0.192
RRIRMRPPRLPRPRPRPYLFPRP	-0.0192
RRIRYRPPRLPRPRPRPAYFPRP	-0.782
RRIRGRPPRLPRPRPRPWRTPRP	-0.0149
RRIRSRPPRLPRPRPRPRNNPRP	-0.212
RRIRHRPPRLPRPRPRPPQQPRP	0.6
RRIRVRPPRLPRPRPRPILIPRP	-0.413
RRIRPRPPRLPRPRPRPSYFPRP	-0.514
RRIRMRPPRLPRPRPRPWNDPRP	-0.112
RRIRMRPPRLPRPRPRPCQPPRP	-0.0351

Sequence	shrunken log2 fold change
RRIRRRPPRLPRPRPRPWLQPRP	0.0763
RRIRRRPPRLPRPRPRPSMVPRP	-0.298
RRIRFRPPRLPRPRPRPVDVPRP	-0.44
RRIRFRPPRLPRPRPRPRLGPRP	0.347
RRIRQRPPRLPRPRPRPGFEPRP	0.809
RRIRNRPPRLPRPRPRPIITPRP	-0.14
RRIRIRPPRLPRPRPRPISHPRP	-0.0541
RRIRTRPPRLPRPRPRPGMNPRP	-0.15
RRIRDRPPRLPRPRPRPEVCPRP	0.0705
RRIRIRPPRLPRPRPRPAEFPRP	-0.0793
RRIRWRPPRLPRPRPRPELAPRP	0.758
RRIRDRPPRLPRPRPRPCDDPRP	0.0345
RRIRARPPRLPRPRPRPPVHPRP	0.516
RRIRFRPPRLPRPRPRPIISPRP	-0.332
RRIRFRPPRLPRPRPRPDQSPRP	0.0148
RRIRIRPPRLPRPRPRPRFPPRP	0.0241
RRIRCRPPRLPRPRPRPKRWPRP	0.627
RRIRCRPPRLPRPRPRPFSGPRP	-0.275
RRIRIRPPRLPRPRPRPGRHPRP	0.0231
RRIRMRPPRLPRPRPRPVKSPRP	0.023
RRIRFRPPRLPRPRPRPFAMPRP	-0.326
RRIRTRPPRLPRPRPRPVRDPRP	0.543
RRIRGRPPRLPRPRPRPRIWPRP	0.836
RRIRVRPPRLPRPRPRPYHKPRP	-0.0829
RRIRERPPRLPRPRPRPVNVPRP	-0.531

Sequence	shrunken log2 fold change
RRIRERPPRLPRPRPRPTFSPRP	-0.216
RRIRERPPRLPRPRPRPFQDPRP	0.0039
RRIRCRPPRLPRPRPRPEGFPRP	0.0977
RRIRCRPPRLPRPRPRPKPMPRP	-0.00253
RRIRWRPPRLPRPRPRPACNPRP	-0.144
RRIRCRPPRLPRPRPRPWDSPRP	-0.36
RRIRVRPPRLPRPRPRPLMSPRP	0.0187
RRIRGRPPRLPRPRPRPESHPRP	0.124
RRIRNRPPRLPRPRPRPFANPRP	-0.0288
RRIRIRPPRLPRPRPRPNMRPRP	-0.374
RRIRFRPPRLPRPRPRPQWNPRP	-0.345
RRIRWRPPRLPRPRPRPKVQPRP	0.00116
RRIRIRPPRLPRPRPRPVVKPRP	-0.151
RRIRTRPPRLPRPRPRPTSAPRP	0.587
RRIRHRPPRLPRPRPRPPLWPRP	0.323
RRIRLRPPRLPRPRPRPALIPRP	-0.00882
RRIRRRPPRLPRPRPRPMTHPRP	-0.17
RRIRLRPPRLPRPRPRPENYPRP	-0.041
RRIRFRPPRLPRPRPRPGFQPRP	0.0959
RRIRVRPPRLPRPRPRPHEWPRP	-0.276
RRIRMRPPRLPRPRPRPAGCPRP	0.842
RRIRSRPPRLPRPRPRPWPEPRP	0.519
RRIRHRPPRLPRPRPRPEDNPRP	-0.0032
RRIRPRPPRLPRPRPRPANMPRP	-0.219
RRIRQRPPRLPRPRPRPIQQPRP	-0.039

Sequence	shrunken log2 fold change
RRIRGRPPRLPRPRPRPPVYPRP	0.352
RRIRVRPPRLPRPRPRPNGGPRP	0.0985
RRIRIRPPRLPRPRPRPINAPRP	-0.431
RRIRNRPPRLPRPRPRPSNYPRP	-0.791
RRIRFRPPRLPRPRPRPENHPRP	-0.84
RRIRHRPPRLPRPRPRPDCAPRP	0.196
RRIRVRPPRLPRPRPRPEFGPRP	0.177
RRIRIRPPRLPRPRPRPWCEPRP	-0.639
RRIRCRPPRLPRPRPRPSDCPRP	-0.387
RRIRRRPPRLPRPRPRPVNKPRP	0.169
RRIRSRPPRLPRPRPRPMPYPRP	-0.278
RRIRWRPPRLPRPRPRPPEYPRP	0.539
RRIRIRPPRLPRPRPRPPFAPRP	0.143
RRIRERPPRLPRPRPRPINQPRP	-0.734
RRIRFRPPRLPRPRPRPLAGPRP	-0.104
RRIRVRPPRLPRPRPRPAKAPRP	0.0673
RRIRMRPPRLPRPRPRPYCTPRP	-0.00702
RRIRDRPPRLPRPRPRPGQHPRP	-0.121
RRIRQRPPRLPRPRPRPCTVPRP	-0.521
RRIRVRPPRLPRPRPRPCVLPRP	-0.44
RRIRTRPPRLPRPRPRPFEKPRP	-0.0979
RRIRERPPRLPRPRPRPGKFPRP	-0.0178
RRIRCRPPRLPRPRPRPSAIPRP	-0.014
RRIRFRPPRLPRPRPRPAEDPRP	0.0423
RRIRNRPPRLPRPRPRPVDNPRP	0.104
